The target in test [1] is DAXX, Q9UER7-1.
A further test has as its target asf1b_human ASF1B (UniProt Q9NVP2).
Another test has as its target caf1a_human CHAF1A (UniProt Q13111).
The target in test [2] is DAXX, Q9UER7-1. This is another data set of the same source.

Sequence of DAXX, Q9UER7-1 (Q9UER7 whole entry): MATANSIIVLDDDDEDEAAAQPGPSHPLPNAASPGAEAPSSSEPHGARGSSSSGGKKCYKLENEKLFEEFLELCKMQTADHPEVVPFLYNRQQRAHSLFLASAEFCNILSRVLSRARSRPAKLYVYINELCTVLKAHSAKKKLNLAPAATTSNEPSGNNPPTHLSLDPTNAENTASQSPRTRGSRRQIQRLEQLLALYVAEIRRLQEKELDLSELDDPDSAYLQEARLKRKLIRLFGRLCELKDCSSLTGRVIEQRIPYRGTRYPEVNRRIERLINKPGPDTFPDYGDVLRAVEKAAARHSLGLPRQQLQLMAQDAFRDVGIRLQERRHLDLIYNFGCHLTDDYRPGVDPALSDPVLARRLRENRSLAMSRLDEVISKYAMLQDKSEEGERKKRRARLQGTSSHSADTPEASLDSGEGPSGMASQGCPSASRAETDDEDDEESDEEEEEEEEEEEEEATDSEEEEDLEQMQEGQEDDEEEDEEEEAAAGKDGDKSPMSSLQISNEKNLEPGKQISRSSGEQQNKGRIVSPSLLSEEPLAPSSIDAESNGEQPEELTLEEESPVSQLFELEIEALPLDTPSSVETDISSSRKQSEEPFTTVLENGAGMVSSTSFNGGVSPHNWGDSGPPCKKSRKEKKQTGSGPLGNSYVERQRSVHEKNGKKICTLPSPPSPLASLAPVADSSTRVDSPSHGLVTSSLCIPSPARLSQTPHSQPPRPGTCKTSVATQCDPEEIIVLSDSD
Sequence of asf1b_human ASF1B (Q9NVP2 whole entry): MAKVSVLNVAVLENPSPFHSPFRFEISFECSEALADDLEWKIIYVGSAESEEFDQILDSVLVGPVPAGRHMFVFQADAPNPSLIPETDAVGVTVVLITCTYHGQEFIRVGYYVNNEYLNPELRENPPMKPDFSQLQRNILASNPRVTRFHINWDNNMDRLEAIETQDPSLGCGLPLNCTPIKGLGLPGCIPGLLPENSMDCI
Sequence of caf1a_human CHAF1A (Q13111 whole entry): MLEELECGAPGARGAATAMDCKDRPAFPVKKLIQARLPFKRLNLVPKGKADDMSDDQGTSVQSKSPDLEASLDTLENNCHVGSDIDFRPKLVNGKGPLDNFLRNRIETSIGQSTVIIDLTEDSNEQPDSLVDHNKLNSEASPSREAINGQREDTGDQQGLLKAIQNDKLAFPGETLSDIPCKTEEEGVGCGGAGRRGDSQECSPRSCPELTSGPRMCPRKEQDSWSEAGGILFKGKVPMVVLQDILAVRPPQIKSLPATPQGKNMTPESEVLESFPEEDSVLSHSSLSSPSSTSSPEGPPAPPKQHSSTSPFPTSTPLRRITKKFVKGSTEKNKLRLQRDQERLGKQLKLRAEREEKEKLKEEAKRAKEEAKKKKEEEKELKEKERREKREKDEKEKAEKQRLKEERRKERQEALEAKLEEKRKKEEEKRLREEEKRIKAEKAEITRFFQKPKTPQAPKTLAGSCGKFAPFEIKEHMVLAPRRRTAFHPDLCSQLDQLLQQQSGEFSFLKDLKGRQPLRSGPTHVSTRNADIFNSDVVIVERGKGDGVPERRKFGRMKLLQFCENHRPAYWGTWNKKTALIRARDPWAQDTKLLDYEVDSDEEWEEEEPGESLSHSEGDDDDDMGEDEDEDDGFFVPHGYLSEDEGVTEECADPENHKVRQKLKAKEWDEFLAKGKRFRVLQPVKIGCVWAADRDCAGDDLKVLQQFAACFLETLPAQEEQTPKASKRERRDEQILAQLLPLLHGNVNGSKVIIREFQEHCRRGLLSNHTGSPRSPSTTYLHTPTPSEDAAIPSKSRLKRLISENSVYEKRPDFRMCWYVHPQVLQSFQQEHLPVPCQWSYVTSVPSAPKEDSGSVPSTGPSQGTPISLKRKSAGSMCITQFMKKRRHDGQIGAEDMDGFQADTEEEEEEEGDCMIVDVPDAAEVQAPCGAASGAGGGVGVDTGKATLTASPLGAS

Regarding “Histone H3.2 (Homo sapiens) (from UniProt Q71DI3) M91G”, in the test with DAXX, Q9UER7-1 [1], the “effect of a mutation on the interaction” value is given as “increasing interaction strength”.

“Histone H3.3 (Homo sapiens) (from UniProt P84243) C111E”: the “effect of a mutation on the interaction” value in the test with asf1b_human ASF1B is “disrupting interaction strength”.

As to “Histone H3.3 (Homo sapiens) (from UniProt P84243) G91M”, the “effect of a mutation on the interaction” value with caf1a_human CHAF1A is “increasing interaction strength”; in the test with DAXX, Q9UER7-1 [2], “decreasing interaction strength”.

The values are drawn from IntAct's records for PubMed 23075851.
